Tests used:
NF-κB = NF-κB luciferase reporter in primary neonatal cardiomyocytes; format: cell-based; conditions: hCT1 0.5 nM
Description: FIGS. 6A, 6B, and 6C. Stimulation with hCT1 causes sustained activation of NF-κB and Stat3 with limited activation of Mef2, as well as limited Nfat activation; the latter two indices are distinct expression patterns from pathologic hypertrophic stimulation. FIG. 6A Primary neonatal cardiomyocytes were transfected with luciferase reporter plasmids (NF-κB or Mef2), as indicators of hypertrophic activity. Luciferase activity was measured after treatments for 24 hrs with: hCT1 (0.5 nM), PE (100 μM), or procaspase 3 activating compound 1, PAC-1 (25 μM) (left). Treatments at early timepoints (30 min, 1 hr, and 3 hr) were also conducted for hCT1 (right). FIG. 6B Primary neonatal cardiomyocytes were transfected with a luciferase reporter plasmid for Stat3. Luciferase activity was measured after treatments for 24 hrs with: hCT1 (0.5 nM), PE (100 μM), or procaspase 3 activating compound 1, PAC-1 (25 μM) (left) and at earlier time points (right). […] Luciferase activity was measured after treatments for 24 hrs with: hCT1 (0.5 nM), PE (100 μM), or procaspase 3 activating compound 1, PAC-1 (25 μM) (left) and at earlier time points (right)
The signaling pathways that CT-1 engages in mediating physiologic adaptive compensatory remodeling were examined. […] Primary neonatal cardiomyocytes were transfected with luciferase reporter plasmids (NF-κB and Mef2) to be used as a read out of transcriptional activity. […]

primary cardiomyocytes = test: Microarray gene expression analysis of primary cardiomyocytes (Affymetrix Rat gene 2.0ST array); format: cell-based; conditions: 0.5 nM, 24 hours, versus non-stimulated
Description: FIGS. 8A and 8B. […] FIG. 8B Microarray analysis of primary cardiomyocytes stimulated with hCT1 (0.5 nM) for 24 hours.
Applicant explored the role of CT-1 as a pro-angiogenic factor in the adaptive hypertrophic response. Physiologic cardiac adaptive compensation is associated with an increase in capillary density, whereas pathologic response is characterized by a decline or no change at all. Importantly, the compensatory vascular growth/angiogenesis that occurs during physiologic adaptive compensation is permissive for the increased workload that accompanies physiologic adaptive compensation. Despite this adaptation, little information exists regarding the mechanisms that match the demand for angiogenesis to the beneficial form of myocardial growth. The rapid in vitro and in vivo adaptive compensation in response to CT-1 supports a hypothesis that the cardiomyocyte itself may act in a paracrine fashion, to signal and promote angiogenesis. To address this conjecture, Applicant examined whether CT-1 treated primary cardiomyocytes produced vascular endothelial growth factor (VEGF), an angiogenic factor known to be produced and secreted by cardiomyocytes. Primary cardiomyocytes were incubated with control serum-free media (Ctrl, SF media) or stimulated with hCT1 (0.5 nM), PE (100 μM), or PAC-1 (25 μM) for 24 hours. […]

B1: hCT1: Recombinant human CT1 protein; 201 amino acid sequence, GenBank Accession Nos AAD12173 and AAA85229 (human) (protein, UniProt Q16619 1-201, looked up)
Cardiotrophin-1: MSRREGSLEDPQTDSSVSLLPHLEAKIRQTHSLAHLLTKYAEQLLQEYVQLQGDPFGLPSFSPPRLPVAGLSAPAPSHAGLPVHERLRLDAAALAALPPLLDAVCRRQAELNPRAPRLLRRLEDAARQARALGAAVEALLAALGAANRGPRAEPPAATASAASATGVFPAKVLGLRVCGLYREWLSRTEGDLGQLLPGGSA
Which results are given for B1?
NF-κB luciferase activity at 1 hr and 3 hr (NF-κB): significant activation; NF-κB transcriptional activity at 24 hrs (NF-κB): sustained; VEGF increase (microarray) (primary cardiomyocytes): 1.3 fold; angiogenic and endothelial factors (Angpt14, Flt4, Vwa5a) expression (primary cardiomyocytes): robust induction
